# Data from the DeepSol protein solubility set.
# Experiment: soluble on expression in E. coli; label from the status in PepcDB or PDB records
row,Sequence,soluble on expression in E. coli
1,MSLAATGDAGWRIRLREAAVVAGPTVLLGEVADPVGEMPAAVWRDLAARPLWAAPADAGRPMIVNKVRLGEALRAALGATADSCLLPPSMALQRGGAVLREGDLRDIVVRTMTPQLASMGGEASFSDFRLPPFAFLEHPQQKVILEPLQPAPGRLSLRFAVLEMDGAVVRRFTGTAFLDVWLTVPCAAQPLNRGDRLEVEKVTWMRKNIAHLRAAPWDGRGGPWQLQRPVGAGQVVYQDDVAPNPAVTRGGIVTLVYESPALRLAVQGEALADGMPGETIQVRNLQSRKQVYATVRDGSTVVVREGHHHHHH,soluble
2,MGSDKIHHHHHHMSGRTMSSIYILWDASHIWGLLAWRTAQSLDLPYRLVRGEEIAQGLLSGKPPALLLVPGGNARMKSVALGAAGMQAIRDYVRGGGAYVGFCGGAGLGLSGSEGLGLCPWGRARFTDRMQHFVSGHVHARVARGHDLVPADLCTDACAEPPVPIWWPGRFAPEKTGDVEVLATYTTPCDDFWVADLPLDTLPPGTFSEWESLYDIRLRPTFLEDQPCILSGRYGKGRYVLSYTHLETPDSPTANRWLLHIIRTLGGIEPPLQRVPAWDLENQQAAWLDPDLLHARGIFDDIVTIGRNHCLFFKRNAWLIGWRAGIPGANLNNLYAAVVTAVSNPPTAECTAYWQEQRQPFMRKLALFHEGVKGYLLAERLAMTLSKTFPETVSRESLRNQRAALFGPPMDSGGLYQELLDTLDELLYRQLPHGL,not soluble
3,MSRATYIIGALAGSAVVAYVCDKVISDDKLFGGTTPGTITNKEWGAATEERLQAWPRVAGPPVVMNPISRQNFIVKSRPE,not soluble
4,MSLAHPPRLNDDKPVIWTVSVTRLFELFRDISLEFDHLANITPIQLGFEKAVTYIRKKLANERCDAIIAAGSNGAYLKSRLSVPVILIKPSGYDVLQELAKAGKLTSSIGVVTYQETIPALVAFQKTFNLRLDQRSYITEEDARGQINELKANGTEAVVGAGLITDLAEEAGMTGIFIYSAATVRQAFSDALDMTRMSLRHNTHDATRNALRTRYVLEGHHHHHH,soluble
5,MSLTPATRNNDSAVAVADAFDDTGDGPPTAARFAALAACWRQPDDDLQAALAAETDTTVDAQSLRAEYTRLFVGPGPSQSPPYESVYRDGERDADLGPVYGSSTQAVARWYSEYGLQPAASESAPPDHLATELEFAAYLREHEGAETLEQFLTEHPRNWVESFARRVRDADPKPFYRTLLNVTVDTLARADTPLEGHHHHHH,not soluble
6,TYAFQRRRFWETPGADGPADAAGLGLGATEHALLGAVVERPDSDEVVLTGRLSLADQPWLADHVVNGVVLFPGAGFVELVIRAGDEVGCALIEELVLAAPLVMHPGVGVQVQVVVGAADESGHRAVSVYSRGDQSQGWLLNAEGMLGVAAAETPMDLSV,soluble
7,MGSDKIHHHHHHDEFIQGIGNQNAQESGVWDFSMSISDMKFSQEDGAQTNPMIGMLITQIKDASLSGKIQVDAKKEKAFNLEMKLKAMGMDVPISLVGSLDNEGKEPKLYLATDMMEYIVAVADSMTDGAIDSSQLDTEKLKGKYIDLLAMNEESTKEWQDTIKEYQESEKERKQSAKEYKEFLEGLDKDTFEKKGDTITHTFTKKELQKLIKITTETSEKGKEQDPFEKVKDVSAKVSVNTKENKTNMLINVKPQQDKNVDMGLESLSSKISITQKAKKATISMPKKENILSEQEVEKIFSDSTSMTGLSTEDTTVAINQ,not soluble
8,MGSVAARDYVGIATKYAEAAVADKGRKRHGRWIRLAAKRFLDDLKRARRRGTPFFFDEWHANDACDFIEKLPHVEGKWETPTIVMHPSHVFFVVQLFGFRRRDAIKVEGWGDDDTFHPRRFTSALFAVARKNAKSTLASAILLYCLCCEPEEGAQVISAATTFDQASIIFRASKRMVEKTPDLAEAFGLATWAKSISRFETGSSYKAVHAKASTQDGLNPSHTGLDEIHAHKTADLLNVLQSAAGARANPLWLFTTTEGYTNAGPWAEIRGFVFALLRGVLGTQADHFLALFYALDNEDKSAKITQDDEFDESKWIKANPLLDVNPHLKAAIRKEAVEAKQMPSKLAEFRIKRCNRPASTASGWVDLTKWAKCGGAVDLDWLAGYPCWGGLDLASTTDIAAFRLLWLVEGVWYTHGWRWVPSEAVKQRTERATVPYAGWVEAGYLLQTEGDVTDYSVIERDILAAVQRFDPQQIAYDAWNAADLVNRLVAASVPMVQFVQGTKSYHPAMQALELAYVGGKLVHGGDPVLAWCASNLVARRDVNLSMAPDRKRSADKIDDMAALLMAMGLAVASDDAEDLSDFFNNAVIGLEHHHHHH,soluble
9,MAEEQQNSDQSNGGNVIPTPEEVATFLHKTVEEGGWEKCWEEEITPWDQGRATPLIVHLVDTSSLPLGRALVPGCGGGHDVVAMASPERFVVGLDISESALAKANETYGSSPKAEYFSFVKEDVFTWRPTELFDLIFDYVFFCAIEPEMRPAWAKSMYELLKPDGELITLMYPITDHVGGPPYKVDVSTFEEVLVPIGFKAVSVEENPHAIPTRKGKEKLGRWKKINLEHHHHHH,soluble
10,MEHNQEIMEQFLKLLSENGRAGQSEDLSRLLFYMDGMNRQLDAVRQELQTVKVQLAQAQDTPQKTVLQGMVDGLQSKVRQAQEKLDSLREKIMQCAANAVESFKRVGVTALDKAVSAMGIHKTLEAVQQNISGSLDDARKSIKKVETLGHELRSVGGHLKNAGRAVAGRETQAVDGGQEGRFQAAFLAPMRTAYKMLSSMNNTTLAAIGNVERLETAAEAVREAKKPPVRQTETQEKEQVKELEHKEEPTETQRREKPSIRQTLTEKSEPMDVSDILSDPANIQIFDTVLEESCRQWCDCIGDAPERASGKGFASFFYEVFEQKEQEYKAELKADTRSEKPSIRKALNEKKAEAAARPSPEPERKAPEAAR,not soluble
11,MGSDKIHHHHHHMIDLSLLPPPDVVESVDFEELYQETLGIFREFMKDQWTAALESDPVVKLMEVMAYREMLTRARVNAAAKASLLAFAKGNDLVNRAADYGVEKLVIRPADPDAVPPVEAVMEGDEALRYRTRLSLEALSVAGSSGAYEYHGLSASAELTNVSVDSPRFVEAELTPEVRAQLPAGAIVVVCDYDAGLANPLPGDVSLAILPSLSSTTPVAQLVAKVKAALSAEEVRPITDRPRVAAGVPTEFKVEAELQIEEGPDPDVVKATARAGLNAAIAEARRLQGQLPLSAIYAALHVTGIRSVTLKHPAAGVVCDKRHYPSCTSVTLTSKVVT,not soluble
12,MGSDKIHHHHHHMSIFISGSLAYDRIMNFPGKFSDHILPDKIHILNVCFLIDRLEEKRGGTAGNIAYSLALLGEKPTILATVGKDFDRYEEVLTGLGLPQDGIRKMDDQFTAGAYITTDQSDNQITGFNPAAMSHPCGYQFNGVTPENDLAIVSPGNLQDMVELPRKFRSMGMRYIFDPGQQITALTGDSMLECINGAHMLVSNDYELEMIMKATGRTKAELLTMTDYIITTLGENGSRIDNGEPVMVGIARPRQVLDPTGAGDAFRAGLLKGLTDGLDVAGAAKIGATCASFCVEHYGTQEHTFTPEEFKARHQAAFGA,not soluble
13,MFFNLRKNKKRLGWFNNGEVEAVAKDLGVAPSEVREMEARLAAQDSTFEAPAEDDDRDMAFTAPVYYLEDKQSDVAYSLEEDNWEDYTNNRLANAIATLDERSQHIVQSRWLADEKATLQELADTYQVSAERIRQLEKNAMKKLKDAVGDVL,not soluble
14,MIDIHCHILPAMDDGAGDSADSIEMARAAVRQGIRTIIATPHHNNGVYKNEPAAVREAADQLNKRLIKEDIPLHVLPGQEIRIYGEVEQDLAKRQLLSLNDTKYILIEFPFDHVPRYAEQLFYDLQLKGYIPVIAHPERNREIRENPSLLYHLVEKGAASQITSGSLAGIFGKQLKAFSLRLVEANLIHFVASDAHNVKTRNFHTQEALYVLEKEFGSELPYMLTENAELLLRNQTIFRQPPQPVKRRKLFGFF,not soluble
15,MDDWKCYDFEKIKRFEKCENPATSCVKKFVHPTLPNDIPISINLQWSPWSECNDRTQTRTGQCFIRLERQLDDSDGLPENWSWLRKLNTMEKHLAFRDGVPLFNGLLASWLYEVESLESCLDTELGPKSKLSGYDNFFGNVLTSLFSNKTISGIKMSDNAFKYCIRTKTLDETNDALIGTYTEDKRTC,not soluble
16,MNNIDQLYTETKSMLSHIQNTPESDELLKQIEDFVATRSELIQEISLPLSEEERKQMKLILTWDQLIVKEMERLKQSIATELQQMKRKRVMHTTYLNPYNNITIDGTYYDKRKLEHHHHHH,soluble
